{"source": "patent US20240262893A1", "binders": {"B1": {"name": "purified R2G3 CDR3-knob (after enterokinase cleavage from trxA) (peptide)", "peptide": "EGDKTCPDGYEHTCGCIGGCGCKRSACIGALCCQASLGGWLSDGETYTYEF", "modifications": "not checked"}, "B2": {"name": "SKM ultralong CDR3 chimeric bovine-human IgG1 antibody (antibody)", "VH": "QVQLRESGPSLVKPSQTLSLTCTASGFSLSDKAVGWVRQAPGKALEWLGSIDTGGNTGYNPGLKSRLSITKDNSKSQVSLSVSSVTTEDSATYYCTTVHQETLRSCPDGYIDNSGCTADWGCAALDCWRRRFGYHSTDPSHYTGATYIYTYSLHIDAWGQGLLVTVSS", "VL": "QAVLNQPSSVSGSLGQRVSITCSGSSSNVGNGYVSWYQLIPGSAPRTLIYGDTSRASGVPDRFSGSRSGNTATLTISSLQAEDEADYFCASAEDSSSNAVFGSGTTLTVL"}, "B3": {"name": "R4C1 ultralong CDR3 chimeric bovine-human IgG1 antibody (antibody)", "VH": "QVQLRESGPSLVKPSQTLSLTCTASGFSLSDKAVGWVRQAPGKPLEWLGSIDTAENTGYNPGLKSRLSITKDNSKSQVSLSVSSVTTEDSATYYCATVHQKTRKEKNCPDGYIYSSNTASGYDCGVWICRRVGSAFCSRTGDYTSPSEFDIYEFYVEGWGQGLLVTVSS", "VL": "B2 VL"}, "B4": {"name": "SKD ultralong CDR3 chimeric bovine-human IgG1 antibody (antibody)", "VH": "QVQLRESGPSLVKPSQTLSLTCTASGFSLSDKAVGWVRQAPGKALEWLGSIDTGGNTGYNPGLKSRLSITKDNSKSQVSLSVSSVTTEDSATYYCTTVHQRTSEKRSCPGGSSRRYPSGASCDVSGGACACYVSNCRGVLCPTLNEIVAYTYEWHVDAWGQGLLVTVSS", "VL": "B2 VL"}, "B5": {"name": "R2D9 CDR3-knob (peptide)", "peptide": "ITHKTCPNGYNWFDRCCSWDGTCGDGCCSNRAWPSGNGRADSSIGETYGYEF", "modifications": "not checked"}}, "key": {"[1]": {"substrate": "S protein of a SARS-CoV-2 delta lineage virus on pseudotyped virus (SARS-CoV-2 (delta lineage))", "assay": "cell-based or functional assay"}, "[2]": {"target": "T1, SARS CoV-2 spike trimer protein from the parental Wuhan-Hu-1 isolate (extracellular domain, furin-cl (SARS-CoV-2 (Wuhan-Hu-1)))", "conditions": "remark: other sources report otherwise"}, "[3]": {"target": "T1, SARS CoV-2 spike trimer protein from …", "assay": "ELISA, spike protein coated, IgG detected with anti-human Fc-HRP", "conditions": "remark: other sources report otherwise"}, "[4]": {"target": "T1, SARS CoV-2 spike trimer protein from …", "conditions": "remark: other sources report otherwise", "remark": "listed apart in the source"}, "[5]": {"target": "recombinant stabilized spike protein derived from the beta strain (formerly described as the South A (SARS-CoV-2 (B.1.351)), P0DTC2)", "conditions": "remark: other sources report otherwise"}}, "note": "Read-outs that look alike come from different tables or passages of the source."}
{"binder": "B1", "values": [{"measurement": "pseudovirus neutralization, ng/mL (quantity not given)", "setting": "[1]", "value": 302, "unit": "ng/mL"}]}
{"binder": "B2", "values": [{"measurement": "EC50 (read off the curve)", "setting": "[2]", "value": 0.2, "unit": "nM"}, {"measurement": "EC50", "setting": "[3]", "value": 0.19, "unit": "nM"}]}
{"binder": "B3", "values": [{"measurement": "EC50 (read off the curve)", "setting": "[4]", "value": 0.03, "unit": "nM"}, {"measurement": "EC50 (read off the curve)", "setting": "[2]", "value": 0.3, "unit": "nM"}, {"measurement": "EC50 (read off the curve)", "setting": "[5]", "value": 0.3, "unit": "nM"}, {"measurement": "EC50", "setting": "[3]", "value": 0.2, "unit": "nM"}]}
{"binder": "B4", "values": [{"measurement": "EC50", "setting": "[3]", "value": 0.16, "unit": "nM"}]}
{"binder": "B5", "values": [{"measurement": "pseudovirus neutralization, ng/mL (quantity not given)", "setting": "[1]", "value": 66.8, "unit": "ng/mL"}]}
